US20240360238A1 (MAGENTA THERAPEUTICS, published 2024)

Key:
[1] = biological target: T1, purified human CD117 ectodomain (R&D Systems #332-SR) (human, UniProt P10721 26-524); experiment: BLI, purified IgG on sensor, soluble ectodomain; apparent monovalent
T1 construct: extracellular domain; Bought protein; also called c-kit; purified recombinant human CD117 ectodomain

[2] = biological target: T2, purified rhesus CD117 ectodomain (rhesus, UniProt F6V858 26-524); experiment: BLI, purified IgG on sensor, soluble rhesus ectodomain; apparent monovalent
T2 construct: extracellular domain; also called rhesus antigen

T1 sequence (P10721 26-524): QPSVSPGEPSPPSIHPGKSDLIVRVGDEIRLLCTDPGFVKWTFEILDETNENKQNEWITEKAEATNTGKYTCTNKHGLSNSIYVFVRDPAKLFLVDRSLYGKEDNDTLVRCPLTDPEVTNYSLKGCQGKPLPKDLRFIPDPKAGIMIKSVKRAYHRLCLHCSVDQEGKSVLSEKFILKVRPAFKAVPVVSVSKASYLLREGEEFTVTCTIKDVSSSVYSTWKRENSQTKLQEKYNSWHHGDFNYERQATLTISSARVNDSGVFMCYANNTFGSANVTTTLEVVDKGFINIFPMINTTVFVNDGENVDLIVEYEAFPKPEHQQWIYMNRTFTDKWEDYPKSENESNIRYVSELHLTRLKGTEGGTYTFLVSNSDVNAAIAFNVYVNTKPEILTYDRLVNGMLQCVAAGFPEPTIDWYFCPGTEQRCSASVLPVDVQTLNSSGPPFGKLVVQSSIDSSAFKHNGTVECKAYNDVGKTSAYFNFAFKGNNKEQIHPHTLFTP

| Binder | Kd [1] | koff [1] | kon [1] | Kd [2] | koff [2] | kon [2] |
| --- | --- | --- | --- | --- | --- | --- |
| HC-2/LC-2 (Ab2) (antibody, IgG1, V domains shown, Purified IgG; also called 002) VH: QVQLVQSGAAVKKPGESLKISCKGSGYRFTTYWIGWVRQMPGKGLEWMGIIYPGDSDTRYSPSFQGQVTISAGKSISTAYLQWSSLKASDTAMYYCARHGRGYNGYEGAFDIWGQGTMVTVSS VL: DIQLTQSPSSLSASVGDRVTITCRASQGIRTDLGWYQQKPGKAPKLLIYDASSLESGVPSRFSGSGSGTDFTLTISSLQPEDFATYYCQQFNSYPLTFGGGTKVEIK | 0.729 nM | 0.00027 s⁻¹ | 370000 M⁻¹ s⁻¹ | – | – | – |
| HC-3/LC-3 (Ab3) (antibody, IgG1, V domains shown, Purified IgG; also called 003) VH: QVQLVQSGAAVKKPGESLKISCKGSGYRFTTYWIGWVRQMPGKGLEWMGIIYPGDSDTRYSPSFQGQVTISAGKSISTAYLQWSSLKASDTAMYYCARHGRGYNGYEGAFDIWGQGTMVTVSS VL: AIRMTQSPSSLSASVGDRVTITCRASQGIRNDLAWYQQKPGKTPKLLIYDASSLESGVPSRFSGSGSGTDFTLTISSLQPEDFATYYCQQFNSYPLTFGGGTKVEIK | 1.02 nM | 0.000352 s⁻¹ | 346000 M⁻¹ s⁻¹ | – | – | – |
| HC-4/LC-4 (Ab4) (antibody, IgG1, V domains shown, Purified IgG; also called 004) VH: QVQLVQSGAAVKKPGESLKISCKGSGYRFTTYWIGWVRQMPGKGLEWMGIIYPGDSDTRYSPSFQGQVTISAGKSISTAYLQWSSLKASDTAMYYCARHGRGYNGYEGAFDIWGQGTMVTVSS VL: AIQMTQSPSSLSASVGDRVTITCRASQGIRNDLGWYQQKPGKAPKLLIYDASSLESGVPSRFSGSGSGTDFTLTISSLQPEDFATYYCQQFNSYPLTFGGGTKVDIK | 1.18 nM | 0.000405 s⁻¹ | 345000 M⁻¹ s⁻¹ | – | – | – |
| HC-5/LC-5 (Ab5) (antibody, IgG1, V domains shown, Purified IgG; also called 005) VH: QVQLVQSGAAVKKPGESLKISCKGSGYRFTTYWIGWVRQMPGKGLEWMGIIYPGDSDTRYSPSFQGQVTISAGKSISTAYLQWSSLKASDTAMYYCARHGRGYNGYEGAFDIWGQGTMVTVSS VL: NIQMTQSPSSLSASVGDRVTITCRASQAISDYLAWFQQKPGKAPKLLIYDASNLETGVPSRFSGSGSGTDFTLTISSLQPEDFATYYCQQLNSYPLTFGGGTKVEIK | 1.21 nM | 0.000461 s⁻¹ | 380000 M⁻¹ s⁻¹ | – | – | – |
| HC-7/LC-7 (Ab7) (antibody, IgG1, V domains shown, Purified IgG; also called 007) VH: QVQLVQSGAAVKKPGESLKISCKGSGYRFTTYWIGWVRQMPGKGLEWMGIIYPGDSDTRYSPSFQGQVTISAGKSISTAYLQWSSLKASDTAMYYCARHGRGYNGYEGAFDIWGQGTMVTVSS VL: DIAMTQSPPSLSAFVGDRVTITCRASQGIISSLAWYQQKPGKAPKLLIYDASSLESGVPSRFSGSGSGTDFTLTIRSLQPEDFATYYCQQFNSYPLTFGGGTKLEIK | 0.99 nM | 0.000272 s⁻¹ | 275000 M⁻¹ s⁻¹ | – | – | – |
| HC-8/LC-8 (Ab8) (antibody, IgG1, V domains shown, Purified IgG; also called 008) VH: QVQLVQSGAAVKKPGESLKISCKGSGYRFTTYWIGWVRQMPGKGLEWMGIIYPGDSDTRYSPSFQGQVTISAGKSISTAYLQWSSLKASDTAMYYCARHGRGYNGYEGAFDIWGQGTMVTVSS VL: DIQMTQSPSSLSASVGDRVTITCRASQGISSALAWYQQKAGKAPKVLISDASSLESGVPSRFSGSGSGTDFTLSISSLQPEDFATYYCQQFNGYPLTFGGGTKVDIK | 0.908 nM | 0.000264 s⁻¹ | 290000 M⁻¹ s⁻¹ | – | – | – |
| HC-12/LC-12 (Ab12) (antibody, IgG1, V domains shown, Purified IgG; also called 012) VH: QVQLVQSGAAVKKPGESLKISCKGSGYRFTTYWIGWVRQMPGKGLEWMGIIYPGDSDTRYSPSFQGQVTISAGKSISTAYLQWSSLKASDTAMYYCARHGRGYNGYEGAFDIWGQGTMVTVSS VL: DIQLTQSPSSLSASVGDRVTITCRASQGVRSTLAWYQQKPGKAPKLLIYDASILESGVPSRFSGSGSGTDFTLTISSLQPEDFATYYCQQFNGYPLTFGQGTRLEIK | 0.911 nM | 0.000268 s⁻¹ | 294000 M⁻¹ s⁻¹ | – | – | – |
| HC-13/LC-13 (Ab13) (antibody, IgG1, V domains shown, Purified IgG; also called 013) VH: QVQLVQSGAAVKKPGESLKISCKGSGYRFTTYWIGWVRQMPGKGLEWMGIIYPGDSDTRYSPSFQGQVTISAGKSISTAYLQWSSLKASDTAMYYCARHGRGYNGYEGAFDIWGQGTMVTVSS VL: DIVMTQSPSSLSASVGDRVTITCRASQGIRNDLGWYQQKPGKAPKLLIYDASSLESGVPSRFSGSGSGTDFTLTISSLQPEDFATYYCQQFNSYPLTFGGGTKLEIK | 1.55 nM | 0.000488 s⁻¹ | 314000 M⁻¹ s⁻¹ | – | – | – |
| HC-14/LC-14 (Ab14) (antibody, IgG1, V domains shown, Purified IgG; also called 014) VH: QVQLVQSGAAVKKPGESLKISCKGSGYRFTTYWIGWVRQMPGKGLEWMGIIYPGDSDTRYSPSFQGQVTISAGKSISTAYLQWSSLKASDTAMYYCARHGRGYNGYEGAFDIWGQGTMVTVSS VL: DIQLTQSPSSLSASVGDRVTITCRASQGISSFLAWYQQKPGKAPKLLIYDASTLQSGVPSRFSGSASGTDFTLTISSLQPEDFATYYCQQLNGYPLTFGGGTKVEIK | 2.03 nM | 0.000577 s⁻¹ | 284000 M⁻¹ s⁻¹ | – | – | – |
| HC-15/LC-15 (Ab15) (antibody, IgG1, V domains shown, Purified IgG; also called 015) VH: QVQLVQSGAAVKKPGESLKISCKGSGYRFTTYWIGWVRQMPGKGLEWMGIIYPGDSDTRYSPSFQGQVTISAGKSISTAYLQWSSLKASDTAMYYCARHGRGYNGYEGAFDIWGQGTMVTVSS VL: AIQLTQSPSSLSASVGDRVTITCRASQGIGSALAWYQQKPGIGPKLLIYDASTLESGVPARFSGSGSRTDFTLTITSLQPEDFATYYCQQFNGYPLTFGGGTKLEIK | 0.979 nM | 0.00026 s⁻¹ | 265000 M⁻¹ s⁻¹ | – | – | – |
| HC-16/LC-16 (Ab16) (antibody, IgG1, V domains shown, Purified IgG; also called 016) VH: QVQLVQSGAAVKKPGESLKISCKGSGYRFTTYWIGWVRQMPGKGLEWMGIIYPGDSDTRYSPSFQGQVTISAGKSISTAYLQWSSLKASDTAMYYCARHGRGYNGYEGAFDIWGQGTMVTVSS VL: AIQLTQSPSSLSASVGDRVTITCRASQGITSALAWYQEKPGKAPNLLIYDASSLESGVPSRFSGSGYGTDFTLTISSLQPEDFATYYCQQLNSYPLTFGGGTKVDIK | 2.93 nM | 0.000949 s⁻¹ | 324000 M⁻¹ s⁻¹ | – | – | – |
| HC-17/LC-17 (Ab17) (antibody, IgG1, V domains shown, From rat immunization/hybridoma; purified IgG in BLI; also called 017) VH: QIQLVQSGPELRKPGESVKISCKASGYTFTDYAMYWVKQAPGKGLKWMGWINTYTGKPTYADDFKGRFVFSLEASANTANLQISNLKNEDTATYFCARARGLVDDYVMDAWGQGTSVTVSS VL: SYELIQPPSASVTLGNTVSLTCVGDELSKRYAQWYQQKPDKTIVSVIYKDSERPSGISDRFSGSSSGTTATLTIHGTLAEDEADYYCLSTYSDDNLPVFGGGTKLTVL | 0.672 nM | 0.000306 s⁻¹ | 456000 M⁻¹ s⁻¹ | 0.562 nM | 0.000173 s⁻¹ | 307000 M⁻¹ s⁻¹ |
| HC-18/LC-18 (Ab18) (antibody, IgG1, V domains shown, From rat immunization/hybridoma; purified IgG in BLI; also called 018) VH: EVQLQQYGAELGKPGTSVRLSCKVSGYNIRNTYIHWVNQRPGEGLEWIGRIDPTNGNTISAEKFKTKATLTADTSSHTAYLQFSQLKSDDTAIYFCALNYEGYADYWGQGVMVTGSS VL: DIQMTQSPSFLSASVGDRVTINCKASQNINKYLNWYQQKVGEAPKRLIFKTNSLQTGIPSRFSGSGSGTDYTLTISSLQTEDVATYFCFQYNIGYTFGAGTKVELK | 22.2 nM | 0.00491 s⁻¹ | 221000 M⁻¹ s⁻¹ | 53.8 nM | 0.0119 s⁻¹ | 221000 M⁻¹ s⁻¹ |
| HC-23/LC-23 (Ab23) (antibody, IgG1, V domains shown, From rat immunization/hybridoma; purified IgG in BLI; also called 023) VH: EVQLQQYGAELGKPGTSVRLSCKVSGYNIRNTYIHWVHQRPGEGLEWIGRIDPTNGNTISAEKFKSKATLTADTSSNTAYMQFSQLKSDDTAIYFCAMNYEGYADYWGQGVMVTVSS VL: DIQMTQSPSFLSASVGDRLTINCKASQNINKYLNWYQQKLGEAPKRLIFKTNSLQTGIPSRFSGSGSGTDYTLTISSLQPEDVATYFCFQYNIGFTFGAGTKLELK | 1.49 nM | 0.000713 s⁻¹ | 478000 M⁻¹ s⁻¹ | 7.62 nM | 0.00214 s⁻¹ | 280000 M⁻¹ s⁻¹ |
| HC-19/LC-19 (Ab19) (antibody, IgG1, V domains shown, From rat immunization/hybridoma; purified IgG in BLI; also called 019) VH: EVQLQESGPGLVKPSQSLSLTCSVTGYSISSNYRWNWIRKFPGNKVEWMGYINSAGSTNYNPSLKSRISMTRDTSKNQFFLQVNSVTTEDTATYYCARSLRGYITDYSGFFDYWGQGVMVTVSS VL: DIRMTQSPASLSASLGETVNIECLASEDIFSDLAWYQQKPGKSPQLLIYNANSLQNGVPSRFSGSGSGTRYSLKINSLQSEDVATYFCQQYKNYPLTFGSGTKLEIK | 2.35 nM | 0.000481 s⁻¹ | 205000 M⁻¹ s⁻¹ | 2.34 nM | 0.000415 s⁻¹ | 177000 M⁻¹ s⁻¹ |
| HC-6/LC-6 (Ab6) (antibody, IgG1, V domains shown, Purified IgG; also called 006) VH: QVQLVQSGAAVKKPGESLKISCKGSGYRFTTYWIGWVRQMPGKGLEWMGIIYPGDSDTRYSPSFQGQVTISAGKSISTAYLQWSSLKASDTAMYYCARHGRGYNGYEGAFDIWGQGTMVTVSS VL: AIRMTQSPSSLSASVGDRVIIACRASQGIGGALAWYQQKPGNAPKVLVYDASTLESGVPSRFSGGGSGTDFTLTISSLQPEDFATYYCQQFNSYPLTFGGGTKLEIK | 3.72 nM | 0.00117 s⁻¹ | 315000 M⁻¹ s⁻¹ | – | – | – |
| HC-9/LC-9 (Ab9) (antibody, IgG1, V domains shown, Purified IgG; also called 009) VH: QVQLVQSGAAVKKPGESLKISCKGSGYRFTTYWIGWVRQMPGKGLEWMGIIYPGDSDTRYSPSFQGQVTISAGKSISTAYLQWSSLKASDTAMYYCARHGRGYNGYEGAFDIWGQGTMVTVSS VL: AIRMTQSPSSLSASVGDRVTITCQASQGIRNDLGWYQQKPGKAPKLLIYDASNLETGVPSRFSGSGSGTDFTFTISSLQPEDIATYYCQQFNSYPLTFGGGTKLEIK | 1.51 nM | 0.000427 s⁻¹ | 283000 M⁻¹ s⁻¹ | – | – | – |
| HC-10/LC-10 (Ab10) (antibody, IgG1, V domains shown, Purified IgG; also called 010) VH: QVQLVQSGAAVKKPGESLKISCKGSGYRFTTYWIGWVRQMPGKGLEWMGIIYPGDSDTRYSPSFQGQVTISAGKSISTAYLQWSSLKASDTAMYYCARHGRGYNGYEGAFDIWGQGTMVTVSS VL: NIQMTQSPSSLSTSVGDRVTITCRASQGIGTSLAWYQQKPGKPPKLLIYDASSLESGVPSRLSGSGSGTDFTLTISSLQPEDFATYYCQQSNSYPITFGQGTRLEIK | 1.68 nM | 0.000585 s⁻¹ | 348000 M⁻¹ s⁻¹ | – | – | – |
| HC-11/LC-11 (Ab11) (antibody, IgG1, V domains shown, Purified IgG; also called 011) VH: QVQLVQSGAAVKKPGESLKISCKGSGYRFTTYWIGWVRQMPGKGLEWMGIIYPGDSDTRYSPSFQGQVTISAGKSISTAYLQWSSLKASDTAMYYCARHGRGYNGYEGAFDIWGQGTMVTVSS VL: AIQLTQSPSSLSASVGDRVTITCRASQSIGDYLTWYQQKPGKAPKVLIYGASSLQSGVPPRFSGSGSGTDFTLTVSSLQPEDFATYYCQQLNSYPLTFGGGTKLEIK | 1.41 nM | 0.000474 s⁻¹ | 336000 M⁻¹ s⁻¹ | – | – | – |
